One assay addresses T1, C3D3_AR113_Axle (D3-C3).
T1 construct: De novo designed D3 homohexameric axle, a surface redesign of 1552_1na0C3_int2_11; For biolayer interferometry the axle was Avi-tagged and enzymatically biotinylated; also called D3 axle; designed D3 axle
T1 chain: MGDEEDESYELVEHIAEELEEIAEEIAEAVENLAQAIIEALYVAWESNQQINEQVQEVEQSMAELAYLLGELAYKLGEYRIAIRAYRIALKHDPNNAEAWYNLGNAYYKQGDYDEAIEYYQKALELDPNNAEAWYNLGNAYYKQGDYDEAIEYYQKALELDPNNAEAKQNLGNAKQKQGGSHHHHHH
Briefly: negative stain EM after pH-controlled, oxidoreductive assembly of axle and ring.

The target of another assay is T2, 54.7_112_Axle.
T2 construct: Axle of a C3-C3 design (C3 homotrimer); It carries no His tag in the bicistronic pull-down; For biolayer interferometry it was Avi-tagged and biotinylated; also called C3-C3 design 54.7.112
T2 chain: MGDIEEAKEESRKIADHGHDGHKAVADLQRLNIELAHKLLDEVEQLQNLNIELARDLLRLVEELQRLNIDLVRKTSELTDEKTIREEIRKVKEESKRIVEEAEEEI
Briefly: biolayer interferometry, biotinylated axle on streptavidin tips, ring in solution. The method, then:
(§1) FIG. 13. Biolayer interferometry assays measuring in vitro assembly of ring and axle parts into a full rotary system. For each 6 designs, the equilibrium binding curves from biolayer interferometry binding assays is shown on the left and the corresponding Biolayer interferometry kinetic binding traces shown on the right. Biotinylated axles were immobilized on the tip and the binding in a solution of fre rings was measured. For both D3-C5 and D3-C3, a fresh ring solution was prepared by buffer exchange from citrate buffer to TBS with reducing agent, and immediately used for binding assays.
Biolayer interferometry experiments were performed on an OctetRED96 BLI system (ForteBio, Menlo Park, CA). Enzymatic protein biotinylation was performed on SEC purified Avi-tagged proteins prior to the assay. The BirA500 (Avidity, LLC) biotinylation kit was used to biotinylate protein from the IMAC elution according to the manufacturer protocol. Reactions were incubated at 4C overnight and purified using size exclusion chromatography on a Superdex™ 6 10/300 Increase GL (GE Healthcare) in TBS buffer (25 mM Tris pH 8.0, 25 mM NaCl). Streptavidin coated biosensors were equilibrated for 10 minutes in Octet buffer (10 mM HEPES pH 7.4, 25 mM NaCl, 3 mM EDTA, 0.05% Surfactant P20) supplemented with 1 mg/ml Bovine Serum Albumin (SigmaAldrich). […]
On the technique in general: Biolayer interferometry detects binding as a change in optical thickness at a sensor tip.

In a further assay the target is T3, 119RC4_20_Axle (D8-C4).
T3 construct: D8 homo-16-meric axle; two C4 rings assemble around one axle; also called D8 axle; D8A_1615
T3 chain: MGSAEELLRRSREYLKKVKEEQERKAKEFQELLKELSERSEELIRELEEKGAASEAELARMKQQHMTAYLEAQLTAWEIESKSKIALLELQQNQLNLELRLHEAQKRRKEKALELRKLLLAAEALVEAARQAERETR
Briefly: stoichiometric mixing of separately purified axle and ring, then SEC, SAXS and EM.

The target in assay [1] is T4, C8D8_6_49_119RC4_20_Axle (C8-C4).
T4 construct: C8 homooctameric axle, the circular permutation version of the D8 axle; For biolayer interferometry it was Avi-tagged and biotinylated; also called C8 axle
T4 chain: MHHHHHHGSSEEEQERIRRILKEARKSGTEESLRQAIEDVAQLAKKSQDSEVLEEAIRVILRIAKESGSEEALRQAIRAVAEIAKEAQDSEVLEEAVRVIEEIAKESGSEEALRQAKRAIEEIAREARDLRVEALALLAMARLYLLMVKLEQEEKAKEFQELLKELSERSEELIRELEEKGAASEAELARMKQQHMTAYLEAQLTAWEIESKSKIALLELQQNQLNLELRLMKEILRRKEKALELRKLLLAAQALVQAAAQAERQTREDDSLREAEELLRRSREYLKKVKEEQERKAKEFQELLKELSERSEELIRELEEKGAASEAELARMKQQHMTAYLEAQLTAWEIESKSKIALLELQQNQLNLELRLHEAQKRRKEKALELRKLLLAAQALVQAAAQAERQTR
Nature of the assay: SEC, SAXS, biolayer interferometry binding kinetics and negative stain EM. The method, then: as §1
(§2) Protein samples were purified by SEC in 25 mM Tris pH 8.0, 25 mM NaCl and 1% glycerol; elution fractions corresponding to the protein were further concentrated using 3K protein concentrators (Millipore Sigma) and the flow-through was used as blank for buffer subtraction. SAXS Scattering measurements were performed at the SIBYLS 12.3.1 beamline at the Advanced Light Source. […] Collected data were processed using the SAXS FrameSlice™ online server and analysed using the ScÅtter software package(23). […]
For orientation: In gel filtration, larger molecules generally elute earlier.

Another assay has as its target T5, C5C3_3250_Axle (C5-C3).
T5 construct: C5 homopentameric axle; For biolayer interferometry it was Avi-tagged and biotinylated; also called C5 axle
T5 chain: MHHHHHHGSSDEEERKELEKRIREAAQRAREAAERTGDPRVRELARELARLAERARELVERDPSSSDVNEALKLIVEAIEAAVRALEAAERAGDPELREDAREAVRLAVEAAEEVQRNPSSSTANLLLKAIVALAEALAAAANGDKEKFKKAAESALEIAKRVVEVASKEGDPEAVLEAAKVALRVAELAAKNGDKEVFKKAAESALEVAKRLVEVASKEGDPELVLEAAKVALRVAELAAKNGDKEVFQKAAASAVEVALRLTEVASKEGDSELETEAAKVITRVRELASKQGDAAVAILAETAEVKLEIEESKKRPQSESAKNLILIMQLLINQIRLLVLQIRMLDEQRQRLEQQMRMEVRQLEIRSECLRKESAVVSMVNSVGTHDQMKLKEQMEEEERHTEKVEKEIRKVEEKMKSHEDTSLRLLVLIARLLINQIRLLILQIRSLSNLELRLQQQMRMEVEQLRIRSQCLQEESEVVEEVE
The description is as above. The method, then: as §1, §2

B1: C3D3_AR113_Ring (D3-C3) (designed binder)
chain: MGQRSGHARQLKRHLHRLRRHLERLDKHAKHLRQILSERPQDERVKDSIDLLEESVRIVKISIKIFEASVRALLWAINKEAEELAKSPDPHDLHRAVRLARAVVQADPGSNLSKKALEIILRAAAELAKLPDPNALAAAARAASQVQREQPGSNLAKAAQEIMRQASRAAEEAARRAKETLEKAEKRGDPKTALQAVRTVVKVAAALNQIATMAGSEEAQERAARVAAEAAELALRVFELAEKQGDPHVARRARKLIQTVLQILLRILTQILETATKIIEEANKLLRKHRRSSRKDPKLVETHVELVKRHERLVRQHLKIALMHALAVLELAFPDAEAAKLASKAAKEAEELCKQSTDERLCDLLAELAALLIELAARYPDSEAAKLALKAALEAIELCKQSTDEELCEELVKLAQKLIELAKRYPDSEEAKRALKEAKELIEQCKESTDEDECRELVKRAEELIREAKEGSHHHHHH
notes: De novo designed C3 homotrimeric ring with disulfides and histidine networks at the subunit interfaces; also called C3 ring; ring of the D3-C3 rotor
Turning to B1, the binding result in the assay with C3D3_AR113_Axle (D3-C3) is on record as “binds”.

B2: 54.7_112_Ring (designed binder)
chain: MGVEELLLLARAAHHSGTTVEEAYKLALKLGISVKELLLLARAAHNSGTTVEEAYKLALKLGISVEELLLLAKAAHYSGTTVEEAYKLALKLGISVRELLLLAKAAHFSGTTVEEAYKLALKLGISVEELLLLARAAHHSGTTVEEAYKLALKLGISVKELLLLARAAHNSGTTVEEAYKLALKLGISVEELLLLAKAAHYSGTTVEEAYKLALKLGISVRELLLLAKAAHFSGTTVEEAYKLALKLGISVEELLLLARAAHHSGTTVEEAYKLALKLGISVKELLLLARAAHNSGTTVEEAYKLALKLGISVEELLLLAKAAHYSGTTVEEAYKLALKLGISVRELLLLAKAAHFSGTTVEEAYKLALKLGISGSHHHHHH
notes: also called C3-C3 design 54.7.112
Turning to B2, the binding result with 54.7_112_Axle is “binds”.

B3: 119RC4_20_Ring (D8-C4) (designed binder)
chain: MGCDAIQAAAALGEAGISSNEILELLAAAAELGLDPDAIQAAAQLGEAGISSEEILELLRAAHELGLDPDAIAAAADLGQAGISSEEILELLRAAHELGLDPDAIQAAAALGEAGISSEEILELLRAAHELGLDPDAIQAAAQLGEAGISSEEILELLRAAHELGLDPDCIAAAADLGQAGISSSEITALLLAAAAIELAKRADDKDVREIVRDALELASRSTNDEVIRLALEAAVLAARSTDSDVLEIVKDALELAKQSTNEEVIKLALKAAVLAAKSTDEEVLEEVKEALRRAKESTDEEEIKEELRKAVEEAEGSHHHHHH
notes: C4 ring of four subunits, each fused to DHR20; two rings sit on each D8 axle; also called C4 ring
With B3, in the assay with 119RC4_20_Axle (D8-C4), the binding result was “binds”.

B4: C8D8_6_49_119RC4_20_Ring (C8-C4) (designed binder)
chain: B3 chain
notes: C4 ring of four subunits; also called C4 ring
In the case of B4, in assay [1], the binding result was “binds”.

B5: C5C3_3250_Ring (C5-C3) (designed binder)
chain: MGNRSLHANKLKTHLENLREHLKRLDEHAKQLRDILSEHPHDERVKDSIDLLEESVRIVKISIKIFEASVRALLWAINKEAEELAKSPDPADLERAVRLAAAVVRADPGSNLSKKALEIILRAAAELAKLPDPKALAAAAEAASRVQREQPGSNLAKAAQEIMRQASRAAEEAARRAKETLEKAEKDGDPRTALQAVMTVVEVAKALNIIATMAGSEEAQERAARVAAEAAELALRVFELAEKQGDPEVAHNARKLIEIVLHILLQILTQILETATKIIREANELLEKHRRSHHHDPKLVETHVELVKRHERLVRQHLKIALMHALAVLELAFPDAEAAKLASKAAKEAEELCKQSTDERLCDLLAELAALLIELAARYPDSEAAKLALKAALEAIELCKQSTDEELCEELVKLAQKLIELAKRYPDSEEAKRALKEAKELIEQCKESTDEDECRELVKRAEELIREAKEGSHHHHHH
notes: C3 homotrimeric ring; also called C3 ring
On to B5, for which the binding result with C5C3_3250_Axle (C5-C3) is reported as “binds”.

For the origin of these results see patent US20240010687A1 (University of Washington, published 2024).
